Data on 4 molecules can be found in US20090060920A1 (Eli Lilly, published 2009).

The labels stand for the following.
B1: 9-28 ghrelin fragment (peptide)
peptide: HQRVQQRKESKKPPAKLQPR
B2: Fab 5611 (Fab, V domains shown)
VH: QVQLQQSEAELVRPGSSVKISCKASGYAFSNYWMNWVKQRPGQGLEWIGQIYPGDGDTKYNGKFKGKATLTADKSSSSAYMQLSSLTSEDSAVYFCVITTVVGGDSDVWGAGTTVTVSS
VL: DLVLTQSPASLAVSLGQRATISCRASKSVSTSGYSYMHWYQQKPGQPPKLLIYLASNLESGVPARFSGSGSGTDFTLNIHPVEEEDAATYYCQHSRELPYTFGGGTKLEIKR
notes: Murine Fab from an Omniclonal library of immunised C57Bl6 mice
B4: 4-28 (cys) ghrelin fragment (peptide)
peptide: FLSPEHQRVQQRKESKKPPAKLQPRC

Experiment [1] addresses B2. Briefly: competition ELISA: peptide preincubated with 10 nM Fab 5611, mixture added to a plate coated with desacyl ghrelin, bound Fab detected with anti-mouse kappa-HRP, A490. The procedure:
(§1) (450-655061) by adding 60 uL of a 0.4 μg/ml (in H₂O) solution to each well. The assay plate is placed in a dry 37° C. incubator overnight. The next day, the assay plate is washed (wash buffer: 0.1% Tween 20, Tris-buffered saline (TBS)), and blocked with casein/PBS (Pierce 37528).
(§2) “2-28 acyl ghrelin” and “3-28 acyl ghrelin” in FIG. 1 refer to acyl ghrelins (SEQ ID NO: 17) missing the first one or two amino acids at the N-terminal end of the molecule, respectively. In FIG. 2, “1-8 (cys) desacyl” refers to a desacyl ghrelin fragment consisting of amino acids 1-8 of SEQ ID NO: 17, with an additional cysteine residue at the C-terminus. “4-28 (cys)” refers to a ghrelin fragment consisting of amino acids 4-28, also with an additional cysteine residue at the C-terminus. “9-28” refers to a ghrelin fragment consisting of amino acids 9-28 of SEQ ID NO: 17. Dilutions of the ghrelin, ghrelin analogs, and Fab are made in casein/PBS. These mixtures are incubated in a separate plate for 1 hour at room temperature.
(§3) The blocking solution is removed from the assay plate and 50 uL of the ghrelin/Fab mixture are added to the assay plate in duplicate. This is allowed to sit for 30 minutes at room temperature. […] The reaction is stopped with 100 uL of 1 N HCl, and the absorbance of the wells is read at 490 nm (Molecular Device SpectraMax250).
(In general: An ELISA detects its analyte on a solid surface through an enzyme-linked reagent.)

The target in experiment [2] is B4. Briefly: competition ELISA on coated desacyl ghrelin, Fab at 10 nM. As to the method:
as §1, §2, §3

In experiment [3] the target is B1. Described as above. The procedure:
as §1, §2, §3

The target of experiment [4] is T1, desacyl human ghrelin (human).
T1 construct: also called desacyl ghrelin; 1-28 desacyl ghrelin
As to the kind of experiment: SPR (BIAcore 2000), Fab captured by goat anti-mouse kappa, ghrelin in solution, 25 C. The procedure:
(§4) Except where noted, all reagents and materials are purchased from BIAcore® AB (Upsala, Sweden). All measurements are performed at 25° C. Samples containing rat or human desacyl ghrelin are dissolved in HBS-EP buffer (150 mM sodium chloride, 3 mM EDTA, 0.005% (w/v) surfactant P-20, and 10 mM HEPES, pH 7.4). A capture antibody, goat anti-mouse Kappa (Southern Biotechnology, Inc), is immobilized onto flow cells using amine-coupling chemistry. Flow cells (1-4) are activated for 7 minutes with a 1:1 mixture of 0.1 M N-hydroxysuccinimide and 0.1 M 3-(N,N-dimethylamino)propyl-N-ethylcarbodiimide at a flow rate of 10 μl/min. Goat anti-mouse Kappa (30 μg/mL in 10 mM sodium acetate, pH 4.5) is manually injected over all 4 flow cells at a flow rate of 10 μL/min. The surface density is monitored and additional goat anti-mouse Kappa is injected if needed to individual cells until all flow cells reach a surface density of 4500-5000 response units (RU). Surfaces are blocked with a 7 minute injection of 1 M ethanolamine-HCl, pH 8.5 (10 μL/min). […]
(§5) Collection of kinetic binding data is performed at maximum flow rate (100 μL/min) and a low surface density to minimize mass transport effects. […] Signal is monitored as flow cell 2 minus flow cell 1, flow cell 3 minus flow cell 1 and flow cell 4 minus flow cell 1. […]
On the technique in general: In SPR one partner is held on a chip, and binding of the other changes the refractive index at the surface.

The target of experiment [5] is T1, desacyl human ghrelin. As to the kind of experiment: SPR (BIAcore 2000), antibody captured by goat anti-mouse kappa, ghrelin in solution, 25 C. As to the method: as §4, §5

As for B1, the binding result in experiment [1] was “no binding (tested: 1000 nM)”.
What is called Kd is the constant that tells how readily two partners part at equilibrium. B2: the binding result in experiment [2] and in experiment [3] was “no binding (tested: at the concentrations tested)” each time. Moreover, the affinity in experiment [4], expressed as Kd, was 0.138 nM.

B3: E8 mouse IgG1 monoclonal antibody (antibody, V domains shown)
VH: QVQLQQSEAELVRPGSSVKISCKASGYAFSNYWMNWVKQRPGQGLEWIGQIYPGDGDTKYNGKFKGKATLTADKSSSSAYMQLSSLTSEDSAVYFCVITTVVGGDSDVWGAGTTVTVSS
VL: DLVLTQSPASLAVSLGQRATISCRASKSVSTSGYSYMHWYQQKPGQPPKLLIYLASNLESGVPARFSGSGSGTDFTLNIHPVEEEDAATYYCQHSRELPYTFGGGTKLEIKR
notes: domain: constant domain of mouse IgG1; also called E8 antibody; E8 mouse IgG1 mAb
As for B3, the affinity in experiment [5], expressed as Kd, was 0.226 nM.
Turning to B4, the binding result in experiment [1] is “no binding (tested: 1000 nM)”.
